In article PMC4643883 one finds stoichiometry N data, which are given here for 2 molecules.

Like-named read-outs stand apart in the source and are kept apart here.

Experiment [1] deals with Drosophila Telomere Loss / Modigliani (DTL/Moi), D. melanogaster (Drosophila melanogaster) (UniProt B7Z0L8). The experiment is described as follows: SEC; combined heparin-sepharose fractions of co-expressed Ver and DTL/Moi; Superdex 200 10/300 GL; 20 mM Tris pH 7.5, 100 mM NaCl. Background: In gel filtration, larger molecules generally elute earlier.
Chain of UniProt B7Z0L8 (B7Z0L8 whole entry): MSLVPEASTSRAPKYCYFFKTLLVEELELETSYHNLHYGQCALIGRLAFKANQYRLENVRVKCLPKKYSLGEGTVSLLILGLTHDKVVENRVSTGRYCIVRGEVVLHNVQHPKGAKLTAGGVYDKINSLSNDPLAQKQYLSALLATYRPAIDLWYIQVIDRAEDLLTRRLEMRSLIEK
The target is the same in experiment [2]. The experiment is described as above. This is another data set of the same source.

As to “D. yakuba Verrocchio (Ver) (natural protein)”, the stoichiometry N in experiment [1] is 1.

B1: Verrocchio (Ver), D. melanogaster (natural protein)
chain: MDFNQSFEDIESQLDNFVIRKNQQSEKSTGKCGPEVHDNVPLTISQIERATQDPENENVFITDDVHPIHFCTCIIYAFVTGNGTHNESFMKFMIDDGTGSLEASITKKPFNGRVISSLYSEASSLASSEAYKSIAVSMMRLLQVSMEYIDPTRISRGHSLFLRGRPNRFRGKMGLDAFQFFIDSGRSRNMEIGFVDYLTDWQRRHKTMQNTTNK
In the case of B1, the stoichiometry N in experiment [2] amounted to 1.

What is called stoichiometry N is the number of molecules, sites or subunits per partner or assembly.
